Measurements from patent publication US20220177587A1, “METHODS AND USES OF VARIANT CD80 FUSION PROTEINS AND RELATED CONSTRUCTS” (Alpine Immune Sciences, Inc., priority 2018, published 2022).
Residue numbers refer to the chain shown, from its start. In names and notes the source's numbering stands.

B1: L70Q/Y87N/A91G/T130A (protein)
chain: VIHVTKEVKEVATLSCGHNVSVEELAQTRIYWQKEKKMVLTMMSGDMNIWPEYKNRTIFDITNNLSIVIQALRPSDEGTYECVVLKNEKDGFKREHLAEVTLSVKADFPTPSISDFEIPTSNIRRIICSASGGFPEPHLSWLENGEELNAINTTVSQDPETELYAVSSKLDFNMTTNHSFMCLIKYGHLRVNQTFNWNTTKQEHFPDN
modifications: CD80 v12 ECD
B2: A91G/S103P (protein)
chain: B1 chain with Q70L, N87Y, S103P, A130T
B3: I67F/L70R/E88G/A91G/I118V/T120S/T130A (protein)
chain: B1 chain with I67F, Q70R, N87Y, E88G, I118V, T120S
modifications: CD80 v148 ECD
B4: R29H/E52G/L70R/E88G/A91G/T130A (protein)
chain: B1 chain with R29H, E52G, Q70R, N87Y, E88G
modifications: CD80 v24 ECD
B5: K37E/F595/L70Q/A91G/T120S/T130A (protein)
chain: B1 chain with K37E, F59S, N87Y, I118V, T120S, K185E
B6: L65H/D90G/T110A/F116L (protein)
chain: B1 chain with L65H, Q70L, N87Y, D90G, G91A, T110A, F116L, A130T
modifications: CD80 v141 ECD
B7: D60V/A91G/I118V/T120S/T130A/K169E (protein)
chain: B1 chain with D60V, Q70L, N87Y, I118V, T120S, K169E
modifications: CD80 v137 ECD
B8: K54M/L70Q/A91G/Y164H (protein)
chain: B1 chain with K54M, N87Y, A130T, Y164H, H188D
modifications: CD80 v138 ECD
B9: A91G/L102S (protein)
chain: B1 chain with Q70L, N87Y, L102S, A130T
B10: V22A/L70Q/S121P (protein)
chain: B1 chain with V22A, N87Y, G91A, S121P, A130T
modifications: CD80 v33 ECD
B11: V68A/T110A (protein)
chain: B1 chain with V68A, Q70L, N87Y, G91A, T110A, A130T
modifications: CD80 v26 ECD
B12: N63S/L70Q/A91G/S114T/I118V/T120S/T130A (protein)
chain: B1 chain with N63S, N87Y, S114T, I118V, T120S, H188D
modifications: CD80 v133 ECD
B13: I67T/L70Q/A91G/I118V/T120S (protein)
chain: B1 chain with I67T, N87Y, I118V, T120S, A130T, N196H
modifications: CD80 v144 ECD
B14: K89E/T130A (protein)
chain: B1 chain with Q70L, N87Y, K89E, G91A
modifications: CD80 v19 ECD
B15: Y31H/T41G/M43L/L70Q/A91G/I118V/T120S//I126V/T130A (protein)
chain: B1 chain with Y31H, T41G, M43L, N87Y, I118V, T120S, I126V
B16: K36E/I67T/L70Q/A91G/I118V/T1205/T130A/N152T (protein)
chain: B1 chain with K36E, I67T, N87Y, I118V, T120S, N152T
B17: R29H/E52G/D90N/I118V/T120S/T130A (protein)
chain: B1 chain with R29H, E52G, Q70L, N87Y, D90N, G91A, I118V, T120S
modifications: CD80 v142 ECD
B18: M38T/L70Q/E77G/A91G/I118V/T120S/T130A/N152T (protein)
chain: B1 chain with M38T, E77G, N87Y, I118V, T120S, N152T
B19: A91G (protein)
chain: B1 chain with Q70L, N87Y, A130T
B20: E24G/L25P/L70Q/A91G/I118V/T120S/N152T (protein)
chain: B1 chain with E24G, L25P, N87Y, I118V, T120S, A130T, N152T
modifications: CD80 v149 ECD
B21: E52G/L70Q/A91G/D107N/I118V/T1205/T130A/K169E (protein)
chain: B1 chain with E52G, N87Y, D107N, I118V, T120S, K169E
B22: L70Q/A91G/T110A/I118V/T120S/T130A (protein)
chain: B1 chain with N87Y, T110A, I118V, T120S
modifications: CD80 v145 ECD
B23: T28S/L70Q/A91G/E95K/I118V/T120S/I126V/T130A/K169E (protein, UniProt P33681 35-288, looked up, variant T28S L70Q A91G E95K I118V T120S I126V T130A K169E)
T-lymphocyte activation …: VIHVTKEVKEVATLSCGHNVSVEELAQSRIYWQKEKKMVLTMMSGDMNIWPEYKNRTIFDITNNLSIVIQALRPSDEGTYECVVLKYEKDGFKRKHLAEVTLSVKADFPTPSISDFEVPSSNIRRVICSASGGFPEPHLSWLENGEELNAINTTVSQDPETELYAVSSELDFNMTTNHSFMCLIKYGHLRVNQTFNWNTTKQEHFPDNLLPSWAITLISVNGIFVICCLTYCFAPRCRERRRNERLRRESVRPV
B24: M38V/T41D/M43I/W50G/D76G/V83A/K89E/I118V/T120S/I126V/T130A (protein)
chain: VIHVTKEVKEVATLSCGHNVSVEELAQTRIYWQKEKKVVLDMISGDMNIGPEYKNRTIFDITNNLSIVILALRPSGEGTYECAVLKYEEDAFKREHLAEVTLSVKADFPTPSISDFEVPSSNIRRVICSASGGFPEPHLSWLENGEELNAINTTVSQDPETELYAVSSKLDFNMTTNHSFMCLIKYGHLRVNQTFNWNTTKQEHFPDN
B25: A12V/S15F/Y31H/M38L/T41G/M43L/D90N/T130A/P137L/N149D/N152T (protein)
chain: VIHVTKEVKEVVTLFCGHNVSVEELAQTRIHWQKEKKLVLGMLSGDMNIWPEYKNRTIFDITNNLSIVILALRPSDEGTYECVVLKYEKNAFKREHLAEVTLSVKADFPTPSISDFEIPTSNIRRIICSASGGFPELHLSWLENGEELDAITTTVSQDPETELYAVSSKLDFNMTTNHSFMCLIKYGHLRVNQTFNWNTTKQEHFPDN

system: human pan T cells; test: Anti-CD3 coimmobilization assay, IFN-gamma; type: cell-based; conditions: Table E32; variant ECD-Fc coimmobilized with anti-CD3; culture supernatant
In short: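 Plates coated overnight with 1 nM or 4 nM OKT3 anti-CD3 plus 1–80 nM rCD80.Fc variants, then washed. Purified human pan T cells or BC3 T cell clone (100,000/well) cultured 3 days in Ex-Vivo 15; supernatant IFN-gamma measured by ELISA.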

Row | Molecule | Coimmobilization with anti CD3 IFN-gamma [pg/mL]
1 | B1 | 136
2 | B2 | 124
3 | B3 | 62
4 | B4 | 200
5 | B5 | 109
6 | B6 | 129
7 | B7 | 120
8 | B8 | 152
9 | B9 | 75
10 | B10 | 105
11 | B11 | 163
12 | B12 | 116
13 | B13 | 1751
14 | B14 | 204
15 | B15 | 288
16 | B16 | 53
17 | B17 | 124
18 | B18 | 119
19 | B19 | 220
20 | B20 | 101
21 | B21 | 94
22 | B22 | 77
23 | B23 | 120
24 | B24 | 82
25 | B25 | 104

system: allogeneic CD4+ T cells; test: Mixed Lymphocyte Reaction (MLR), IFN-gamma; type: cell-based, human; conditions: Table E32; variant ECD-Fc in MLR assay; culture supernatant
Description: Soluble rCD80.Fc bioactivity was tested in a human Mixed Lymphocyte Reaction (MLR). Human primary dendritic cells (DC) were generated by culturing monocytes isolated from PBMC (BenTech Bio, USA) in vitro for 7 days with 500U/ml rIL-4 (R&D Systems, USA) and 250 U/ml rGM-CSF (R&D Systems, USA) in Ex-Vivo 15 media (Lonza, Switzerland). 10,000 matured DC and 100,000 purified allogeneic CD4+ T cells (BenTech Bio, USA) were co-cultured with variant CD80 Fc fusion proteins and controls in 96 well round bottom plates in 200 μl final volume of Ex-Vivo 15 media. On day 5, IFN-gamma secretion in culture supernatants was analyzed using the Human IFN-gamma Duoset ELISA kit (R&D Systems, USA). Optical density was measured by VMax ELISA Microplate Reader (Molecular Devices, USA) and quantitated against titrated rIFN-gamma standard included in the IFN-gamma Duo-set kit (R&D Systems, USA).

Row | Molecule | MLR IFN-gamma levels [pg/mL]
26 | B1 | 769
27 | B2 | 670
28 | B3 | 1003
29 | B4 | 740
30 | B5 | 863
31 | B6 | 758
32 | B7 | 744
33 | B8 | 685
34 | B9 | 698
35 | B10 | 976
36 | B11 | 861
37 | B12 | 705
38 | B13 | 794
39 | B14 | 761
40 | B15 | 782
41 | B16 | 852
42 | B17 | 800
43 | B18 | 796
44 | B19 | 877
45 | B20 | 969
46 | B21 | 874
47 | B22 | 656
48 | B23 | 834
49 | B24 | 671
50 | B25 | 711
